Measured values from the supplement of paper PMC12042874.
± gives the uncertainty stated by the source.

Test: amyloid nucleation score (Sup35N fusion, yeast selection) (log enrichment); library NNK1; higher = more nucleation; inactive = no reads after selection
Summary of the method: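 For the nucleation score, DiMSum gave the log enrichment of output over input reads, centred on the mode score of non-aggregating sequences. Psi-negative yeast expressing Sup35N fused to peptides of 20 random codons were induced with 100 μM copper sulfate for 24 hours and grown 7 days at 30°C on medium lacking adenine and uracil. Input and output plasmid inserts were Illumina-sequenced, and sequences with under 100 input reads were excluded.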

| Substance | amyloid nucleation score |
| --- | --- |
| AALVCPRFLTSKANFVPSKG | inactive |
| AARVGVVVF | 0.065 ± 0.41 |
| AASTNSGR | 0.305 ± 0.68 |
| AASVSCNLQQKAKRVAFFLM | 0.726 ± 1.1 |
| ACSPSLVL | 1.52 ± 0.84 |
| ADCPLCGTYNLSYCMVRLDI | 0.349 ± 0.28 |
| ADNFLFWHVIEYKENLDHAR | -1.32 ± 1.1 |
| AEAKN | -1.01 ± 0.9 |
| AEHNYVRRELAGEPNLV | 3.11 ± 0.095 |
| AEVTDMGDLFSERMLSVVQI | -0.499 ± 1.9 |
| AFDQGGIYTVPSGKNFPCTL | -0.186 ± 0.4 |
| AFGADKTRYMSVFTKCVS | 0.253 ± 0.37 |
| AFIFMSTATDDLFFAINL | -0.139 ± 0.35 |
| AFPTIAYMIWVFVDVQLCSE | 1.25 ± 0.58 |
| AFRRCTKSFIL | -0.427 ± 1.9 |
| AGFVYFPMYNKLMELFTRGI | 1.29 ± 0.66 |
| AGIQIGWVIHSLCSSELRLS | -0.875 ± 0.69 |
| AGLWTLRQMWWFTWGSIDII | inactive |
| AGSLAM | -0.246 ± 0.48 |
| AGVCRNNSPLIHTFNF | 0.728 ± 0.64 |
| AHLAVPSQLNECFIVSLWV | 0.328 ± 0.76 |
| AHSANSKIVSFRMLDDYRPD | 1.1 ± 0.39 |

| Substance | amyloid nucleation score |
| --- | --- |
| AHSCDGPCRPHVTAVKALVL | 0.089 ± 0.48 |
| AIAIPDRCLFYATRFSCDSR | inactive |
| AICRLDVVWVT | 0.135 ± 0.37 |
| AICWPVILSTDLTQTYLAWT | -0.247 ± 0.3 |
| AIHMEHCCFVNVQRILRFVV | 4.68 ± 0.092 |
| AILNRLLSLPSFPVPSSDSQ | 0.466 ± 1.4 |
| AIPLSDRR | 1.48 ± 0.88 |
| AIQCSTARNDVECKLFTYVL | 0.086 ± 0.71 |
| AIQYHNWGSEACLWHERESG | 0.225 ± 0.26 |
| AIRWYGMDDMPTRGYQWSPA | -0.128 ± 0.59 |
| AISVGVFRVWC | 3.53 ± 0.09 |
| AIVTSGNRE | -0.015 ± 0.51 |
| AKGYSYCKLI | -0.804 ± 0.3 |
| AKVCLKSVTQFTTHLLMSRG | -0.009 ± 0.77 |
| AKVYSGIPWWNFSTFLRGEV | -0.668 ± 1.4 |
| AKWPARSPSLQLGNFWFDTT | 0.161 ± 0.59 |
| ALAVVVLFLCVSTPAYVAFE | 0.923 ± 0.53 |
| ALCLSRARSSG | -0.152 ± 0.68 |
| ALKQPVYDGRGPRLGIGPRR | -0.124 ± 1 |
| ALKWSTLLTLFLGYSHIVSM | 1.46 ± 0.38 |
| ALLIPINTLGDN | 0.605 ± 0.7 |
| ALMNGQMVTGALITEWYNWC | 0.439 ± 0.97 |

| Substance | amyloid nucleation score |
| --- | --- |
| ALPIMKLMACVCGQKGMTYA | -0.047 ± 0.69 |
| ALPYVYRTLVNNLLIPSSGL | 1.02 ± 0.67 |
| ALSSWLLFGSTCQDSDCFKD | 1.16 ± 0.76 |
| ALTRS | -0.074 ± 0.49 |
| AMFAMLNDRGRLGACYLVGK | 1.55 ± 0.78 |
| AMNFWRKILIFSELVYG | 2.19 ± 0.5 |
| AMQGACGFISGGFSVARVFV | 0.296 ± 0.25 |
| ANDKHLVLGWAQVVTQMDGR | 0.731 ± 0.86 |
| ANELFTVDKKSVGYIPTHTL | 0.445 ± 0.56 |
| ANIYGWDDPYFEQL | 0.045 ± 0.75 |
| ANMYY | -0.279 ± 1.1 |
| ANSSF | -0.126 ± 0.54 |
| ANSSLLEFHTYDWDLYSACL | -1.06 ± 1.5 |
| ANVNSWTRPAIMIVLDWGVP | 0.868 ± 0.58 |
| APCRVMIYINMSMDYWTMES | 5.19 ± 0.072 |
| APKITGQTSNVGTRA | -0.028 ± 0.52 |
| APPLSFEFL | 3.06 ± 0.092 |
| APVSIKCRFL | 0.357 ± 0.55 |
| AQFSTKPQQRIP | 1.51 ± 0.56 |
| AQLGDDYVRCHSTILSTRRL | 0.167 ± 0.62 |
| AQLWRARREFSFMTPMPSVS | -0.624 ± 1.5 |
| AQLYVNWFCVWSFKE | 6.2 ± 0.08 |

| Substance | amyloid nucleation score |
| --- | --- |
| AQQLGMMGVGFMQRWNCRF | -1.74 ± 2.4 |
| ARFRYVESSRQMSMNVVCLT | 0.194 ± 0.38 |
| ARGCD | -0.247 ± 1.1 |
| ARIEFSGWFHPQLDLVFFVQ | 1.97 ± 0.15 |
| ARLDRSFR | 0.451 ± 0.55 |
| ARNIVSFDGTFYSFKQTYTP | 2.12 ± 0.19 |
| ARVSRSFVSRAANIHGNCRR | -0.029 ± 1.1 |
| ARYSRRRKVMSLLVTGEMDA | -0.038 ± 0.44 |
| ASCVGNINDCRPNIAFWVEE | 0.984 ± 0.84 |
| ASGVWRQ | -0.47 ± 0.65 |
| ASHFELYRLRKGLMCSVVSI | inactive |
| ASIKTRTSFRVKVWYWVRNL | -0.598 ± 1.7 |
| ASLLMLLVGRKICLAQVNKG | 0.412 ± 0.51 |
| ASLLSGQK | 0.358 ± 1.1 |
| ASRSSIPSG | -0.038 ± 1 |
| ASSVHPRYFLNMTSSGVRKS | inactive |
| ASWFLVISTSLVYHSATADR | 0.211 ± 0.39 |
| ATRVPPFMEVLSPYH | inactive |
| AVCIMFRVNRFIRIVNTGGC | 0.042 ± 0.58 |
| AVCVEGQLANSGHRGTGNGN | 0.257 ± 0.48 |
